Measurements taken from patent US20200079848A1 (Five Prime, published 2020).
Numbering of substitutions follows the chain as printed. Names may count otherwise. Values belong to the binder of their own block, whether it stands above or below them.

Legend:
[1] = biological target: T1, human ILT4 (hILT4) expressed on cells (human, UniProt Q8N423 22-597); assay: flow cytometry on hILT4-transfected CHO cells, MFI (PE); EC50 from the table beside the graph; the table has no unit, the concentration axis is in ug/mL
T1 construct: hILT4 on transfected CHO or 293T cells, or native on human monocytes and macrophages; also called LILRB2
T1 sequence (Q8N423 other isoform, or with tags, fused parts or gaps): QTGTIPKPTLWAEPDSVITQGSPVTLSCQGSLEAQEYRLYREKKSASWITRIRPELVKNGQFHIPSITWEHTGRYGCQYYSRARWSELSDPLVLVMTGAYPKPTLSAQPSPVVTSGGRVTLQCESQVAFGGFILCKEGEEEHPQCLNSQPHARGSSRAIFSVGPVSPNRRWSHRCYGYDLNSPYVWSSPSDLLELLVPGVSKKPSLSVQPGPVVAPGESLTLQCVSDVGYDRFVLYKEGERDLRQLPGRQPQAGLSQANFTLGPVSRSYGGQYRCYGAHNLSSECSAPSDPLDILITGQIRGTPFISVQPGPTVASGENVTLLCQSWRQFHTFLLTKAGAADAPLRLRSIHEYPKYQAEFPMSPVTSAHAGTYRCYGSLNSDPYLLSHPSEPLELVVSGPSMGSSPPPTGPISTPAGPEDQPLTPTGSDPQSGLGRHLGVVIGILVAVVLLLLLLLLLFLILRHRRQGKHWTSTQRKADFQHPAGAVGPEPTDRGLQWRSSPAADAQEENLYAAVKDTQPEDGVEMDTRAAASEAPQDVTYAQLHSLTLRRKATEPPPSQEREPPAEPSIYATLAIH

hILT4-His-Avi tag [2] = biological target: T2, hILT4-His-Avi tag (human, UniProt Q8N423 22-459); assay: SPR Biacore T200, 37 C; antibody captured on protein A/G chip, monomeric hILT4 as analyte; steady state fit
T2 construct: also called monomeric human ILT4; extracellular region of hILT4 linked to a His-Avi tag
T2 sequence (Q8N423 other isoform, or with tags, fused parts or gaps): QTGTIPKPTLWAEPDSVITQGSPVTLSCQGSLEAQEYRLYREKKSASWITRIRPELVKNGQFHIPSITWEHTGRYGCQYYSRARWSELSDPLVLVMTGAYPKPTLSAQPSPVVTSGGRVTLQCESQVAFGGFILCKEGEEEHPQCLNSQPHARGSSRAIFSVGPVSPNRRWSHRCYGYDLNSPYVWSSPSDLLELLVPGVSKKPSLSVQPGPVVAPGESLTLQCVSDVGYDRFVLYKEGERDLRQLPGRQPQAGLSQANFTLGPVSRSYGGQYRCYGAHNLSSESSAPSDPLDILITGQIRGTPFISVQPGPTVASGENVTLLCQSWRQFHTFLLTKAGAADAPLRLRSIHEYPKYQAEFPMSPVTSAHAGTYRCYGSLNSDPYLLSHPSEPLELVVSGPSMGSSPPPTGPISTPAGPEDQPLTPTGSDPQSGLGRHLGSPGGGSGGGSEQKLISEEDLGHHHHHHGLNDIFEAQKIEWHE
Protocol: (§1) The binding kinetics of the parent and germline reversion mutant anti-hILT4 antibodies (in the context of IgG1.3) were measured via Surface Plasmon Resonance (SPR) using a Biacore® T200 instrument. The assay temperature was 37° C. and the running buffer was PBS pH 7.4 supplemented with 0.05% Tween-20. Allanti-hILT4 antibodies were captured on a CM4 chip with pre-immobilized protein A/G (Pierce Thermo Scientific catalog number 21186). […] Monomeric human ILT4 was injected as analyte. […] The hILT4 used in this experiment, comprising the extracellular region of hILT4 linked to a His-Avi tag, consists of the following amino acid sequence: […]

hILT4-His-Avi tag [3] = biological target: T2, hILT4-His-Avi tag; assay: SPR Biacore T200, 37 C; antibody captured on protein A/G chip, monomeric hILT4 as analyte; kinetic fit
Protocol: as §1

hILT4-His-Avi tag [4] = biological target: T2, hILT4-His-Avi tag; assay: SPR Biacore T200, 37 C; antibody captured on protein A/G chip, monomeric hILT4 as analyte
Protocol: as §1

hILT4-His-Avi tag [5] = biological target: T2, hILT4-His-Avi tag; assay: SPR Biacore T200, 37 C; antibody captured by anti-human Fc on CM4 chip, hILT4-His-Avi as analyte; 1:1 Langmuir fit
Protocol: The running buffer was 10 mM HEPES pH 7.4 supplemented with 0.05% Tween-20 and 1 g/L BSA. All anti-ILT4 antibodies were captured on a CM4 chip with pre-immobilized anti-human Fc capture antibody from Southern Biotech (catalog number 2081-01). […] All data were double-referenced and fitted to a 1:1 Langmuir model with mass transport using Biacore T200 Evaluation Software version 3.1.

[6] = biological target: T1, human ILT4 (hILT4) expressed on cells; assay: flow cytometry on hILT4-transfected CHO cells, PE anti-human IgG secondary, GMFI (PE); EC50 from the table below the graph; the table has no unit, the concentration axis is in ug/mL
[7] = biological target: T1, human ILT4 (hILT4) expressed on cells; assay: antibody titration flow cytometry binding assay on transfected cells, nonlinear regression
human LILRA3 = biological target: T3, human LILRA3 (human, UniProt Q8N6C8 24-439); assay: as above
T3 construct: whole, on cells; also called hLILRA3; LIRA3
T3 sequence (Q8N6C8 24-439): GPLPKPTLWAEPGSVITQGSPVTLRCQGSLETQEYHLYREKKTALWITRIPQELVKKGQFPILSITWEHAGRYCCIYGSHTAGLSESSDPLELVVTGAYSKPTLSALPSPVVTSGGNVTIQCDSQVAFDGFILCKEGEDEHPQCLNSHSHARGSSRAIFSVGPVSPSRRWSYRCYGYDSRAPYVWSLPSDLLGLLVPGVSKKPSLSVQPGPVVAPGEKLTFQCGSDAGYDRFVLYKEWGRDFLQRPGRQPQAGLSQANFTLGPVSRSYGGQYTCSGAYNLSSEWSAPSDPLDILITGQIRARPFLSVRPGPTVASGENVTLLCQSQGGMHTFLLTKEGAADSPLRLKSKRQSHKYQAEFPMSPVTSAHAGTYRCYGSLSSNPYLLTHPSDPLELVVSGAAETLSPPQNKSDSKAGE

[8] = biological target: T1, human ILT4 (hILT4) expressed on cells; assay: flow cytometry on human monocytes of a healthy donor, directly labelled antibody, GMFI; EC50 from the table below the graph; the table has no unit, the concentration axis is in ug/mL
Excerpt: In FIG. 18B, monocytes selected from a normal healthy donor's peripheral blood were stained with individual anti-ILT4 antibodies conjugated to […].

human LILRA4 = biological target: T4, human LILRA4 (human, UniProt P59901 24-499); assay: flow cytometry, 293T transfectants, antibody 20 µg/ml; stacked histograms, control: parental cells
T4 construct: whole, on cells; also called hLILRA4
T4 sequence (P59901 24-499): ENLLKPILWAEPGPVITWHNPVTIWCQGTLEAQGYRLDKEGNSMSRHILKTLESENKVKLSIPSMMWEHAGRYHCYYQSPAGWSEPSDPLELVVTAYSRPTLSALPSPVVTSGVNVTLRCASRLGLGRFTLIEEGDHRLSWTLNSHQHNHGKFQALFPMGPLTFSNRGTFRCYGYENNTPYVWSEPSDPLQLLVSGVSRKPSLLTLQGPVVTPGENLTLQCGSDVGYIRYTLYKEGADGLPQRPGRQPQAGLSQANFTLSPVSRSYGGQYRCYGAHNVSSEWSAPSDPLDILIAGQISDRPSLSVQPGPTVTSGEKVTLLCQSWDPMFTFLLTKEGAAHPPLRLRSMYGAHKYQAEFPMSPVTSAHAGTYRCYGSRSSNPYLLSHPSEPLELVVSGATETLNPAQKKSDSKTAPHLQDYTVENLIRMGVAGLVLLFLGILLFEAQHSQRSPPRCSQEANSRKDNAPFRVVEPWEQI
Protocol: (§2) Individual ILT family members were overexpressed in 293T cells. Each transfectant was stained with 20 μg/ml of anti-ILT4 antibodies followed by 1 μg/ml of anti-human IgG secondary mAb. Binding of the antibodies to each transfectant was measured by flow cytometry.

human ILT5 = biological target: T5, human ILT5 (human, UniProt O75022 24-631); assay: as above
T5 construct: whole, on cells; also called hILT5; LILRB3
Protocol: as §2

human LIR8 = biological target: T6, human LIR8 (human, UniProt O75023 24-590); assay: as above
T6 construct: whole, on cells; also called hLIR8
T6 sequence (O75023 24-590): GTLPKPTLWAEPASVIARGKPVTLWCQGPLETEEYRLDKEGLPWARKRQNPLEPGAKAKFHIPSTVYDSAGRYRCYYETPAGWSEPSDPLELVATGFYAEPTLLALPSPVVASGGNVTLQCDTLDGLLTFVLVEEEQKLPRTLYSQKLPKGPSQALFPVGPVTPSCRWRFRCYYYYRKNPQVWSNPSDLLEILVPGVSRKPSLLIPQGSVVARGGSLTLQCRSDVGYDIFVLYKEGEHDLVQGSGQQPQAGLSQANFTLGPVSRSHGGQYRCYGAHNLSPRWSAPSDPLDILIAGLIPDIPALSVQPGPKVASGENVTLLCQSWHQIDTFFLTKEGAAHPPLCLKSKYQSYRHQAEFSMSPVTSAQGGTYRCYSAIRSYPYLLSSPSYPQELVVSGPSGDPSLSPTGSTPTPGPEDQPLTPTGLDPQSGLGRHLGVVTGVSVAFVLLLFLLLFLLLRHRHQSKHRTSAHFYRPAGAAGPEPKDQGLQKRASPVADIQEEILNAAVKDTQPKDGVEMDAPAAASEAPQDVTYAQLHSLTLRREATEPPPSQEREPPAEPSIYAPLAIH
Protocol: as §2

human LILRA5 = biological target: T7, human LILRA5 (human, UniProt A6NI73 42-299); assay: as above
T7 construct: whole, on cells; also called hLILRA5
T7 sequence (A6NI73 42-299): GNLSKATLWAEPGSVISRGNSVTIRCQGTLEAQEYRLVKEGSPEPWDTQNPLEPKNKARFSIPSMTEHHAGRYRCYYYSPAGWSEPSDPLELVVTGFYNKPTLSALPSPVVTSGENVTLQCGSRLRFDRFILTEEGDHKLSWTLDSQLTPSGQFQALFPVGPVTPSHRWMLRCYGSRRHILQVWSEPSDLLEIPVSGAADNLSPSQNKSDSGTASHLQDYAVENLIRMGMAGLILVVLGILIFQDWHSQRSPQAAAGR
Protocol: as §2

human LILRA6 = biological target: T8, human LILRA6 (human, UniProt Q6PI73 24-481); assay: as above
T8 construct: whole, on cells; also called hLILRA6
T8 sequence (Q6PI73 24-481): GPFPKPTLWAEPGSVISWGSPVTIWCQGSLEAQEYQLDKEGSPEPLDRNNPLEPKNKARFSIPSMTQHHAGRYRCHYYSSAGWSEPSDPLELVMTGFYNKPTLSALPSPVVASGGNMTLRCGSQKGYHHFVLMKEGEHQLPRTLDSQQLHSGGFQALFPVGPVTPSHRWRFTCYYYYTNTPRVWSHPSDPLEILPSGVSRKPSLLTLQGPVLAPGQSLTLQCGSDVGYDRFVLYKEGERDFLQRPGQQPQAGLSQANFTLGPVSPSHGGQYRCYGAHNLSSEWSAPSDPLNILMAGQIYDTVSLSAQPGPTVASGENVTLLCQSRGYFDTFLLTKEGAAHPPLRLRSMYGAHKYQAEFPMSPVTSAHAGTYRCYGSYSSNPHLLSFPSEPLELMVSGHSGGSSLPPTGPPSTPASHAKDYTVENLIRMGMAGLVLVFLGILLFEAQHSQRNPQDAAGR
Protocol: as §2

human ILT2 = biological target: T9, human ILT2 (human, UniProt Q8NHL6 24-650); assay: as above
T9 construct: whole, on cells; also called hILT2
T9 sequence (Q8NHL6 24-650): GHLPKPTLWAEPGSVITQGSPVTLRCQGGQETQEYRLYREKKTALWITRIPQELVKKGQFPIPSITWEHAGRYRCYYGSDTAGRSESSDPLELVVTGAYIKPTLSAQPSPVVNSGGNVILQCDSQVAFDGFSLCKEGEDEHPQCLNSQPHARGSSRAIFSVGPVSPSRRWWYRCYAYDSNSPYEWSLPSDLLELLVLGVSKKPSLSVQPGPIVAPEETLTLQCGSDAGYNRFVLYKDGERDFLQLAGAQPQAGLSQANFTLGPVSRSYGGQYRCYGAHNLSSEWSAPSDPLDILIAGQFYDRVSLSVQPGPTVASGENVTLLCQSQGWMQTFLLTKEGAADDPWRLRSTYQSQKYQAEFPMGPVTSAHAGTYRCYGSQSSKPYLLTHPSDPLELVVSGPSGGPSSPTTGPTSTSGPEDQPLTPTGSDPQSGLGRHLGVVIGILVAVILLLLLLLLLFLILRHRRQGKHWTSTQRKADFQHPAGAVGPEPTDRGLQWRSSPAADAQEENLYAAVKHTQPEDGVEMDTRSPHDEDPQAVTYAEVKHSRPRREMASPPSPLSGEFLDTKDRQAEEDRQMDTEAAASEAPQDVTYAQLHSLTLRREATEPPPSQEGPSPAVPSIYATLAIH
Protocol: as §2

human LILRA2 = biological target: T10, human LILRA2 (human, UniProt Q8N149 24-483); assay: as above
T10 construct: whole, on cells; also called hLILRA2
T10 sequence (Q8N149 24-483): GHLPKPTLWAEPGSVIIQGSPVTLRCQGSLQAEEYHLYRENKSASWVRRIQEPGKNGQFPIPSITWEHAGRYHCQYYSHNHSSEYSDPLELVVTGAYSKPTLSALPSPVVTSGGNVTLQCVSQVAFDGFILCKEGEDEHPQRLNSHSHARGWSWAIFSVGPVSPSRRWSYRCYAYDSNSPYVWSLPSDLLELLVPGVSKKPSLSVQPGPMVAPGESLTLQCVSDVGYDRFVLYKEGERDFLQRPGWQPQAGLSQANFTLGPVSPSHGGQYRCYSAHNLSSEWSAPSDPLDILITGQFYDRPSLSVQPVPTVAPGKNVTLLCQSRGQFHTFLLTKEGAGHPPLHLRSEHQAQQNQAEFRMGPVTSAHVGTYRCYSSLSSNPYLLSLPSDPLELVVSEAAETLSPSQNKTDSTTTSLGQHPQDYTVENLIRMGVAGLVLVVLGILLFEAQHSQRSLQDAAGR
Protocol: as §2

human ILT3 = biological target: T11, human ILT3 (human, UniProt Q8NHJ6 22-448); assay: as above
T11 construct: whole, on cells; also called hILT3
Protocol: as §2

Kd (hILT4-His-Avi tag [3]): 0.42 nM
app. act. (hILT4-His-Avi tag [3]): 97%
koff (hILT4-His-Avi tag [3]): 0.0012 s⁻¹
kon (hILT4-His-Avi tag [3]): 3e+06 M⁻¹ s⁻¹
B8: 21D9.c.hIgG1.3 (antibody, V domains shown)
VH: EVQLLESGGDLVQPGGSLRLSCAASGFTFSNYAMNWVRQAPGKGLEWISVISVSGGSTYYADSVKGRFTISRDNSKNTLYLQMNSLRAEDTAVYYCAKDYYYDSGSYYDSFFDYWGQGTLVTVSS
VL: not shown
notes: Germline reversion mutant of 21D9; light chain of 21D9; IgG1.3; also called 21D9.VH-G2V/T24A.IgG1.3

Kd (hILT4-His-Avi tag [3]): 0.35 nM
app. act. (hILT4-His-Avi tag [3]): 84%
koff (hILT4-His-Avi tag [3]): 0.0011 s⁻¹
kon (hILT4-His-Avi tag [3]): 3.1e+06 M⁻¹ s⁻¹
B9: 21D9.d.hIgG1.3 (antibody, V domains shown)
VH: B8 VH with A24T, I48V
VL: not shown
notes: Germline reversion mutant of 21D9; light chain of 21D9; IgG1.3; also called 21D9.VH-G2V/I48V

EC50 [1]: 0.268 µg/mL
B10: 24E5.A7 (antibody, V domains shown)
VH: EVQLLESGGGLVQPGGSLRLSCAASGFTFSSYVMSWVRQAPGKGLEWVSGISGSGGSTYYADSVKGRFTISRDNSKNTLYLQMNSLRAEDTAVYYCAKDQDIIAAYYFVYWGQGTLVTVSS
VL: DIQMTQSPSSLSASVGDRVTITCRASQGISSWLAWYQQKPEKAPKSLIYAASSLQSGVPSRFSGSGSGTDFTLTISSLQPEDFATYYCQQYNSYPLTFGGGTKVEIK
notes: Hybridoma antibody (human IgG / human kappa), tested as hybridoma supernatant

EC50 [1]: 0.0174 µg/mL
B11: 21D9.H11 (antibody, V domains shown)
VH: B8 VH with V2G, A24T
VL: not shown
notes: Hybridoma antibody (human IgG / human kappa), tested as hybridoma supernatant; also called 21D9 (hybridoma)

EC50 [6]: 0.0627 µg/mL
Kd (hILT4-His-Avi tag [5]): 0.036 nM
app. act. (hILT4-His-Avi tag [5]): 100%
koff (hILT4-His-Avi tag [5]): 1.7e-05 s⁻¹
kon (hILT4-His-Avi tag [5]): 490000 M⁻¹ s⁻¹
EC50 [7]: 0.085 µg/mL
EC50 (human LILRA3): 52.9 µg/mL
EC50 [8]: 0.395 µg/mL
Kd (hILT4-His-Avi tag [3]): 0.17 nM
app. act. (hILT4-His-Avi tag [3]): 98%
koff (hILT4-His-Avi tag [3]): 0.00019 s⁻¹
kon (hILT4-His-Avi tag [3]): 1.1e+06 M⁻¹ s⁻¹
binding result (human LILRA4): no binding (tested: 20 µg/ml)
binding result (human ILT5): no binding (tested: 20 µg/ml)
binding result (human LIR8): no binding (tested: 20 µg/ml)
binding result (human LILRA5): no binding (tested: 20 µg/ml)
binding result (human LILRA6): no binding (tested: 20 µg/ml)
binding result (human ILT2): no binding (tested: 20 µg/ml)
binding result (human LILRA2): no binding (tested: 20 µg/ml)
binding result (human ILT3): no binding (tested: 20 µg/ml)
B12: 21A5.a.IgG1.3 (antibody, V domains shown)
VH: QVQLVQSGAEVKKPGASVKVSCKASGYTFTDYYLHWVRQAPGQGLEWMGIFHPSGDITSSAQNFQGRVTMTRDTSTSTVYMELSSLRSEDTAVYYCARGGVLRYLDWSHAFDIWGQGTMVTVSS
VL: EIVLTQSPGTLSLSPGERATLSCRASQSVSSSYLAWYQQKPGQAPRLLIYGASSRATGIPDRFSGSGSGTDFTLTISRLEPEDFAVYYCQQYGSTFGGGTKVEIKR
notes: Germline reversion mutant of 21A5 (VH I70T, VK A3V; 21A5.1 light chain); IgG1.3; also called ILT4.9.IgG1.3; ILT4.9

The next lines start with the binder.

B1: 9C8.A6 (antibody, V domains shown)
VH: QVQLVQSGAEVKKPGASVKVSCKASGYTFTSSDINWVRQATGQGLEWMGWMNPNSGHTGYAQKFQDRVTLTRDTSISTAYMELSSLRSEDSAVYYCARGGNSIDWGFSYYGLDVWGQGTTVTVSS
VL: AIQLTQSPSSLSASVGDRVTITCRASQGISSALAWYQQKPGKAPKLLIYDASSLESGVPSRFSGSGSGTDFTLTISSLQPEDFATYYCQQFNSYPFTFGPGTKVDIK
notes: Hybridoma antibody (human IgG / human kappa from transgenic mice), tested as hybridoma supernatant
EC50 [1]: 0.189 µg/mL

B2: 2E5.A11 (antibody, V domains shown)
VH: QVQLVESGGGVVQPGRSLRLSCTASGFTFSNYGMHWVRQAPGKGLEWVAVIWYDGSNEYYAESVKGRLTISRDNSKNTLYLQVNSLRAEDTAVYYCARDPFYGSGNYFDYWGQGTLVTVSS
VL: not shown
notes: as for B10
EC50 [1]: 0.0986 µg/mL

B3: 9G4 (antibody, V domains shown)
VH: QVQLQESGPGLVKPSETLSLTCTVSGGSISSYYWNWIRQPPGKGLEWLGYIYYSGSTKYNPSLKSRVTISVDTSKNQFSLKLSSVTAADTAVYYCASSGWYYFDYWGQGTLVTVSS
VL: EIVLTQSPATLSLSPGERATLSCRASQSVSSYLAWYQQKPGQAPRLLIYDASNRATGIPARFSGSGSGTDFTLTISSLEPEDFAGYYCQQRSYWPWTFGQGTKVEIK
notes: Hybridoma antibody (human IgG / human kappa), tested as hybridoma supernatant; also called 9G4 (hybridoma)
EC50 [1]: 2.84 µg/mL

B4: 10F10.1.IgG1.3 (antibody, V domains shown)
VH: QVQLVESGGGVVQPGRSLRLSCAASGFTFSSYAMHWVRQAPGKGLEWVAIISYDEYNKYYADSVKGRFTISRDNSKNTLYLQMNSLRAEDTAVYYCAREWVGIRYWGQGTLVTVSS
VL: AIQLTQSPSSLSASVGDRVTITCRASQGISSALAWYQQKPGKAPKLLIYDASSLESGVPSRFTGSGSGTDFTLTISSLQPEDFATYYCQQFNSYPITFGQGTRLEIKR
notes: Germline reversion mutant of 10F10 (light chain F36Y); heavy chain of 10F10; IgG1.3; also called 10F10.VK-F36Y.IgG1.3
Kd (hILT4-His-Avi tag [2]): 56 nM
app. act. (hILT4-His-Avi tag [2]): 88%
Kd (hILT4-His-Avi tag [3]): 46 nM
app. act. (hILT4-His-Avi tag [3]): 94%
koff (hILT4-His-Avi tag [3]): ~0.07 s⁻¹
kon (hILT4-His-Avi tag [3]): 1.5e+06 M⁻¹ s⁻¹
fold loss in overall affinity relative to parent 10F10 (hILT4-His-Avi tag [4]): ~3 fold

B5: 10F10.4 (antibody, human IgG1, kappa, V domains shown)
VH: B4 VH
VL: B4 VL with Y36F, T63S
notes: 10F10 with only the light chain reversion T63S
Kd (hILT4-His-Avi tag [5]): 22 nM
app. act. (hILT4-His-Avi tag [5]): 117%
koff (hILT4-His-Avi tag [5]): 0.027 s⁻¹
kon (hILT4-His-Avi tag [5]): 1.2e+06 M⁻¹ s⁻¹

B6: 10F10.3.IgG1.3 (antibody, V domains shown)
VH: B4 VH
VL: B4 VL with T63S
notes: Germline reversion mutant of 10F10 (light chain F36Y and T63S); heavy chain of 10F10; IgG1.3; also called ILT4.11.IgG1.3; 10F10.VK-F36Y/T63S.IgG1.3
Kd (hILT4-His-Avi tag [2]): 52 nM
app. act. (hILT4-His-Avi tag [2]): 115%
Kd (hILT4-His-Avi tag [3]): 47 nM
app. act. (hILT4-His-Avi tag [3]): 123%
koff (hILT4-His-Avi tag [3]): ~0.08 s⁻¹
kon (hILT4-His-Avi tag [3]): 1.7e+06 M⁻¹ s⁻¹
fold loss in overall affinity relative to parent 10F10 (hILT4-His-Avi tag [4]): ~3 fold

B7: 21D9.b.hIgG1.3 (antibody)
heavy: EVQLLESGGGLVQPGGSLRLSCATSGFTFSNYAMNWVRQAPGKGLEWISVISVSGGSTYYADSVKGRFTISRDNSKNTLYLQMNSLRAEDTAVYYCAKDYYYDSGSYYDSFFDYWGQGTLVTVSSASTKGPSVFPLAPSSKSTSGGTAALGCLVKDYFPEPVTVSWNSGALTSGVHTFPAVLQSSGLYSLSSVVTVPSSSLGTQTYICNVNHKPSNTKVDKRVEPKSCDKTHTCPPCPAPEAEGAPSVFLFPPKPKDTLMISRTPEVTCVVVDVSHEDPEVKFNWYVDGVEVHNAKTKPREEQYNSTYRVVSVLTVLHQDWLNGKEYKCKVSNKALPAPIEKTISKAKGQPREPQVYTLPPSREEMTKNQVSLTCLVKGFYPSDIAVEWESNGQPENNYKTTPPVLDSDGSFFLYSKLTVDKSRWQQGNVFSCSVMHEALHNHYTQKSLSLSPG
light: not shown
notes: Germline reversion mutant of 21D9 (VH G2V, D10G); light chain of 21D9; IgG1.3
Kd (hILT4-His-Avi tag [3]): 0.34 nM
app. act. (hILT4-His-Avi tag [3]): 90%
koff (hILT4-His-Avi tag [3]): 0.0011 s⁻¹
kon (hILT4-His-Avi tag [3]): 3.1e+06 M⁻¹ s⁻¹
